{
  "source": "patent US20100279923A1",
  "target": "T1, factor XII (FXII/FXIIa) in rat plasma (rat) (UniProt D3ZTE0)",
  "T1 sequence (looked up)": "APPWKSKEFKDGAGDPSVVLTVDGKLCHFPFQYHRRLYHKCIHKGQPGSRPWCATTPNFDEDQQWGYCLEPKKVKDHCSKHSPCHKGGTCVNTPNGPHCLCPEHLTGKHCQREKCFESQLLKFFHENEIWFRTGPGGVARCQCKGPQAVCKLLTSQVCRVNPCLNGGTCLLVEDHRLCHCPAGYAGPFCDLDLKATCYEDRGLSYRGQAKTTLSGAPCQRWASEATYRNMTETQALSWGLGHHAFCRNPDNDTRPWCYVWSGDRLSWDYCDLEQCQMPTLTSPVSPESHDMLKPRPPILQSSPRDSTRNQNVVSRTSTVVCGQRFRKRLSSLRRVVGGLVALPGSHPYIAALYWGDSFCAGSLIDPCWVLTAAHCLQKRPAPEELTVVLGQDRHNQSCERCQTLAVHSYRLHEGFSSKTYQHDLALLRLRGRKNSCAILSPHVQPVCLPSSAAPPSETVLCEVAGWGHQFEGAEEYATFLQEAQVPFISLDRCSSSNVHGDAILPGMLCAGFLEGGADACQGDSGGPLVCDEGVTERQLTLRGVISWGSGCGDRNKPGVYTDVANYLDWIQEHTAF",
  "experiment": "cell-based or functional assay",
  "data": [
    {"binder": "Berinert P (C1 esterase inhibitor) (protein, human, UniProt P05155 23-500, looked up) NPNATSSSSQDPESLQDRGEGKVATTVISKMLFVEPILEVSSLPTTNSTTNSATKITANTTDEPTTQPTTEPTTQPTIQPTQPTTQLPTDSPTQPTTGSFCPGPVTLCSDLESHSTEAVLGDALVDFSLKLYHAFSAMKKVETNMAFSPFSIASLLTQVLLGAGENTKTNLESILSYPKDFTCVHQALKGFTTKGVTSVSQIFHSPDLAIRDTFVNASRTLYSSSPRVLSNNSDANLELINTWVAKNTNNKISRLLDSLPSDTRLVLLNAIYLSAKWKTTFDPKKTRMEPFHFKNSVIKVPMMNSKKYPVAHFIDQTLKAKVGQLQLSHNLSLVILVPQNLKHRLEDMEQALSPSVFKAIMEKLEMSKFQPTLLTLPRIKVTTSQDMLSIMEKLEFFDFSYDLNLCGLTEDPDLQVSAMQHQTVLELTETGVEAAAASAISVARTLLVFEVQQPFLFVLWDQQHKFPVFMGRVYDPRA", "values": [
      {"measurement": "FXII activity [% of the norm] in rat plasma spiked with 0.98 U/mL Berinert P (% of the norm)", "value": 215},
      {"measurement": "FXII activity [% of the norm] in rat plasma spiked with 2.4 U/mL Berinert P (% of the norm)", "value": 94},
      {"measurement": "FXII activity [% of the norm] in rat plasma spiked with 4.5 U/mL Berinert P (% of the norm)", "value": 85},
      {"measurement": "FXII activity [% of the norm] in rat plasma spiked with 9.92 U/mL Berinert P (% of the norm)", "value": 55},
      {"measurement": "FXII activity [% of the norm] in rat plasma spiked with 16.7 U/mL Berinert P (% of the norm)", "value": 25}
    ]}
  ]
}
